From US20130336893A1 (Sanofi, published 2013)
*1 amine or outer side, *2 acyl side, *3 side chain or, on linkers, in order; H or OH if unused. Where no end group is shown, it is not given here. Side-chain parts run from the residue outwards. [ ]: non-standard residue; d: D form. The star is where a group is joined. Desaminohistidyl = O=C(CCc1c[nH]cn1)*; Ser(Me) = COC[C@H](N[*:1])C(=O)[*:2]; Palmitoyl = CCCCCCCCCCCCCCCC(=O)*; NMeQ = CN[C@@H](CCC(N)=O)C(=O)O; GABA = NCCCC(=O)O

B1: SEQ ID NO: (25) (peptide)
peptide: HS[NMeQ]GTFTSDLSKQMDSRRAQDFIEWLKNGGPSSGAPPPS-NH2
modifications: N-terminus assumed
SMILES: CC[C@H](C)[C@H](NC(=O)[C@H](Cc1ccccc1)NC(=O)[C@H](CC(=O)O)NC(=O)[C@H](CCC(N)=O)NC(=O)[C@H](C)NC(=O)[C@H](CCCNC(=N)N)NC(=O)[C@H](CCCNC(=N)N)NC(=O)[C@H](CO)NC(=O)[C@H](CC(=O)O)NC(=O)[C@H](CCSC)NC(=O)[C@H](CCC(N)=O)NC(=O)[C@H](CCCCN)NC(=O)[C@H](CO)NC(=O)[C@H](CC(C)C)NC(=O)[C@H](CC(=O)O)NC(=O)[C@H](CO)NC(=O)[C@@H](NC(=O)[C@H](Cc1ccccc1)NC(=O)[C@@H](NC(=O)CNC(=O)[C@H](CCC(N)=O)N(C)C(=O)[C@H](CO)NC(=O)[C@@H](N)Cc1c[nH]cn1)[C@@H](C)O)[C@@H](C)O)C(=O)N[C@@H](CCC(=O)O)C(=O)N[C@@H](Cc1c[nH]c2ccccc12)C(=O)N[C@@H](CC(C)C)C(=O)N[C@@H](CCCCN)C(=O)N[C@@H](CC(N)=O)C(=O)NCC(=O)NCC(=O)N1CCC[C@H]1C(=O)N[C@@H](CO)C(=O)N[C@@H](CO)C(=O)NCC(=O)N[C@@H](C)C(=O)N1CCC[C@H]1C(=O)N1CCC[C@H]1C(=O)N1CCC[C@H]1C(=O)N[C@@H](CO)C(N)=O
B2: SEQ ID NO: (28) (peptide)
peptide: H[Ser(Me)]QGTFTSDLSKQMDSRRAQDFIEWLKNGGPSSGAPPPS-NH2
modifications: N-terminus assumed
SMILES: CC[C@H](C)[C@H](NC(=O)[C@H](Cc1ccccc1)NC(=O)[C@H](CC(=O)O)NC(=O)[C@H](CCC(N)=O)NC(=O)[C@H](C)NC(=O)[C@H](CCCNC(=N)N)NC(=O)[C@H](CCCNC(=N)N)NC(=O)[C@H](CO)NC(=O)[C@H](CC(=O)O)NC(=O)[C@H](CCSC)NC(=O)[C@H](CCC(N)=O)NC(=O)[C@H](CCCCN)NC(=O)[C@H](CO)NC(=O)[C@H](CC(C)C)NC(=O)[C@H](CC(=O)O)NC(=O)[C@H](CO)NC(=O)[C@@H](NC(=O)[C@H](Cc1ccccc1)NC(=O)[C@@H](NC(=O)CNC(=O)[C@H](CCC(N)=O)NC(=O)[C@H](COC)NC(=O)[C@@H](N)Cc1c[nH]cn1)[C@@H](C)O)[C@@H](C)O)C(=O)N[C@@H](CCC(=O)O)C(=O)N[C@@H](Cc1c[nH]c2ccccc12)C(=O)N[C@@H](CC(C)C)C(=O)N[C@@H](CCCCN)C(=O)N[C@@H](CC(N)=O)C(=O)NCC(=O)NCC(=O)N1CCC[C@H]1C(=O)N[C@@H](CO)C(=O)N[C@@H](CO)C(=O)NCC(=O)N[C@@H](C)C(=O)N1CCC[C@H]1C(=O)N1CCC[C@H]1C(=O)N1CCC[C@H]1C(=O)N[C@@H](CO)C(N)=O
B3: SEQ ID NO: (29) (peptide)
peptide: H[dS]QGTFTSDLSKQMDSRRAHDFIEWLKNGGPSSGAPPPS-NH2
modifications: N-terminus assumed
SMILES: CC[C@H](C)[C@H](NC(=O)[C@H](Cc1ccccc1)NC(=O)[C@H](CC(=O)O)NC(=O)[C@H](Cc1c[nH]cn1)NC(=O)[C@H](C)NC(=O)[C@H](CCCNC(=N)N)NC(=O)[C@H](CCCNC(=N)N)NC(=O)[C@H](CO)NC(=O)[C@H](CC(=O)O)NC(=O)[C@H](CCSC)NC(=O)[C@H](CCC(N)=O)NC(=O)[C@H](CCCCN)NC(=O)[C@H](CO)NC(=O)[C@H](CC(C)C)NC(=O)[C@H](CC(=O)O)NC(=O)[C@H](CO)NC(=O)[C@@H](NC(=O)[C@H](Cc1ccccc1)NC(=O)[C@@H](NC(=O)CNC(=O)[C@H](CCC(N)=O)NC(=O)[C@@H](CO)NC(=O)[C@@H](N)Cc1c[nH]cn1)[C@@H](C)O)[C@@H](C)O)C(=O)N[C@@H](CCC(=O)O)C(=O)N[C@@H](Cc1c[nH]c2ccccc12)C(=O)N[C@@H](CC(C)C)C(=O)N[C@@H](CCCCN)C(=O)N[C@@H](CC(N)=O)C(=O)NCC(=O)NCC(=O)N1CCC[C@H]1C(=O)N[C@@H](CO)C(=O)N[C@@H](CO)C(=O)NCC(=O)N[C@@H](C)C(=O)N1CCC[C@H]1C(=O)N1CCC[C@H]1C(=O)N1CCC[C@H]1C(=O)N[C@@H](CO)C(N)=O
B4: SEQ ID NO: (30) (peptide)
peptide: H[dS]QGTFTSDLSKQMDSRRAKDFIEWLKNGGPSSGAPPPS-NH2
modifications: N-terminus assumed
SMILES: CC[C@H](C)[C@H](NC(=O)[C@H](Cc1ccccc1)NC(=O)[C@H](CC(=O)O)NC(=O)[C@H](CCCCN)NC(=O)[C@H](C)NC(=O)[C@H](CCCNC(=N)N)NC(=O)[C@H](CCCNC(=N)N)NC(=O)[C@H](CO)NC(=O)[C@H](CC(=O)O)NC(=O)[C@H](CCSC)NC(=O)[C@H](CCC(N)=O)NC(=O)[C@H](CCCCN)NC(=O)[C@H](CO)NC(=O)[C@H](CC(C)C)NC(=O)[C@H](CC(=O)O)NC(=O)[C@H](CO)NC(=O)[C@@H](NC(=O)[C@H](Cc1ccccc1)NC(=O)[C@@H](NC(=O)CNC(=O)[C@H](CCC(N)=O)NC(=O)[C@@H](CO)NC(=O)[C@@H](N)Cc1c[nH]cn1)[C@@H](C)O)[C@@H](C)O)C(=O)N[C@@H](CCC(=O)O)C(=O)N[C@@H](Cc1c[nH]c2ccccc12)C(=O)N[C@@H](CC(C)C)C(=O)N[C@@H](CCCCN)C(=O)N[C@@H](CC(N)=O)C(=O)NCC(=O)NCC(=O)N1CCC[C@H]1C(=O)N[C@@H](CO)C(=O)N[C@@H](CO)C(=O)NCC(=O)N[C@@H](C)C(=O)N1CCC[C@H]1C(=O)N1CCC[C@H]1C(=O)N1CCC[C@H]1C(=O)N[C@@H](CO)C(N)=O
B5: SEQ ID NO: (125) (peptide)
peptide: H[dS]QGTFTSDLSKQMESRRAQDFIEWLKSGGPSSGAPPPSK([GABA-Palmitoyl])-NH2
modifications: N-terminus assumed
SMILES: CCCCCCCCCCCCCCCC(=O)NCCCC(=O)NCCCC[C@H](NC(=O)[C@H](CO)NC(=O)[C@@H]1CCCN1C(=O)[C@@H]1CCCN1C(=O)[C@@H]1CCCN1C(=O)[C@H](C)NC(=O)CNC(=O)[C@H](CO)NC(=O)[C@H](CO)NC(=O)[C@@H]1CCCN1C(=O)CNC(=O)CNC(=O)[C@H](CO)NC(=O)[C@H](CCCCN)NC(=O)[C@H](CC(C)C)NC(=O)[C@H](Cc1c[nH]c2ccccc12)NC(=O)[C@H](CCC(=O)O)NC(=O)[C@@H](NC(=O)[C@H](Cc1ccccc1)NC(=O)[C@H](CC(=O)O)NC(=O)[C@H](CCC(N)=O)NC(=O)[C@H](C)NC(=O)[C@H](CCCNC(=N)N)NC(=O)[C@H](CCCNC(=N)N)NC(=O)[C@H](CO)NC(=O)[C@H](CCC(=O)O)NC(=O)[C@H](CCSC)NC(=O)[C@H](CCC(N)=O)NC(=O)[C@H](CCCCN)NC(=O)[C@H](CO)NC(=O)[C@H](CC(C)C)NC(=O)[C@H](CC(=O)O)NC(=O)[C@H](CO)NC(=O)[C@@H](NC(=O)[C@H](Cc1ccccc1)NC(=O)[C@@H](NC(=O)CNC(=O)[C@H](CCC(N)=O)NC(=O)[C@@H](CO)NC(=O)[C@@H](N)Cc1c[nH]cn1)[C@@H](C)O)[C@@H](C)O)[C@@H](C)CC)C(N)=O
B6: SEQ ID NO: (24) (peptide)
peptide: [Desaminohistidyl]SQGTFTSDLSKQMDSRRAQDFIEWLKNGGPSSGAPPPS-NH2
SMILES: CC[C@H](C)[C@H](NC(=O)[C@H](Cc1ccccc1)NC(=O)[C@H](CC(=O)O)NC(=O)[C@H](CCC(N)=O)NC(=O)[C@H](C)NC(=O)[C@H](CCCNC(=N)N)NC(=O)[C@H](CCCNC(=N)N)NC(=O)[C@H](CO)NC(=O)[C@H](CC(=O)O)NC(=O)[C@H](CCSC)NC(=O)[C@H](CCC(N)=O)NC(=O)[C@H](CCCCN)NC(=O)[C@H](CO)NC(=O)[C@H](CC(C)C)NC(=O)[C@H](CC(=O)O)NC(=O)[C@H](CO)NC(=O)[C@@H](NC(=O)[C@H](Cc1ccccc1)NC(=O)[C@@H](NC(=O)CNC(=O)[C@H](CCC(N)=O)NC(=O)[C@H](CO)NC(=O)CCc1c[nH]cn1)[C@@H](C)O)[C@@H](C)O)C(=O)N[C@@H](CCC(=O)O)C(=O)N[C@@H](Cc1c[nH]c2ccccc12)C(=O)N[C@@H](CC(C)C)C(=O)N[C@@H](CCCCN)C(=O)N[C@@H](CC(N)=O)C(=O)NCC(=O)NCC(=O)N1CCC[C@H]1C(=O)N[C@@H](CO)C(=O)N[C@@H](CO)C(=O)NCC(=O)N[C@@H](C)C(=O)N1CCC[C@H]1C(=O)N1CCC[C@H]1C(=O)N1CCC[C@H]1C(=O)N[C@@H](CO)C(N)=O

Each binder was assayed against human GLP-1 receptor (human, UniProt P43220 24-463) (assay: cell-based or functional assay).

Binder	EC50 hGLP-1R (cAMP formation) [pM]
HSQGTFTSDLSKQMDSRRAQDFIEWLKNGGPSSGAPPPS-NH2 [SEQ ID NO: (9)]	22.2
HSQGTFTSDLSKQMDSRAAQLFIEWLKNGGPSSGAPPPS-NH2 [SEQ ID NO: (22)]	0.8
HSQGTFTSDLSKQMDKRRAQDFIEWLKNGGPSSGAPPPS-NH2 [SEQ ID NO: (19)]	17
HSEGTFTSDLSKQMDSRRAQDFIEWLKNGGPSSGAPPPS-NH2 [SEQ ID NO: (10)]	31.3
B1	170
B2	128
B3	28
B4	50.5
B5	10.8
B6	264
HSQGTFTSDLSKQMDSRRAQDFIEWLKNGGPSSGAPPPK(Palmitoyl)-NH2 [SEQ ID NO: (21)]	78.2

Each binder was assayed against human glucagon receptor (human, UniProt P47871 26-477) (assay: cell-based or functional assay).
Chain of human glucagon receptor (P47871 26-477): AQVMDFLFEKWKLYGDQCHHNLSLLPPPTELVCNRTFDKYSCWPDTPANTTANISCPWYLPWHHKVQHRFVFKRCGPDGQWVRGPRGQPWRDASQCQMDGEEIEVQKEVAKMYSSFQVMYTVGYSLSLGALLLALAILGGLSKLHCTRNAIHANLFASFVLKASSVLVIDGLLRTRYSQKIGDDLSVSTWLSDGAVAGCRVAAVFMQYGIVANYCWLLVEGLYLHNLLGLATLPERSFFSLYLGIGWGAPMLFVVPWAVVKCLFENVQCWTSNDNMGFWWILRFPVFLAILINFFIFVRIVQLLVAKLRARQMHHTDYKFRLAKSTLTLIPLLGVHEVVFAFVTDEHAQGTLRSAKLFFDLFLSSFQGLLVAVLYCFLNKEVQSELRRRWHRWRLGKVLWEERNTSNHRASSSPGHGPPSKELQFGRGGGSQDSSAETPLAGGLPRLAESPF

Binder	EC50 hGlucagonR (cAMP formation) [pM]
HSQGTFTSDLSKQMDSRRAQDFIEWLKNGGPSSGAPPPS-NH2 [SEQ ID NO: (9)]	26.4
HSQGTFTSDLSKQMDSRAAQLFIEWLKNGGPSSGAPPPS-NH2 [SEQ ID NO: (22)]	127
HSQGTFTSDLSKQMDKRRAQDFIEWLKNGGPSSGAPPPS-NH2 [SEQ ID NO: (19)]	52
HSEGTFTSDLSKQMDSRRAQDFIEWLKNGGPSSGAPPPS-NH2 [SEQ ID NO: (10)]	16700
B1	171
B2	6480
B3	149
B4	1050
B5	17.1
B6	168
HSQGTFTSDLSKQMDSRRAQDFIEWLKNGGPSSGAPPPK(Palmitoyl)-NH2 [SEQ ID NO: (21)]	547
